Measured values taken from publication PMC10904854, “A druggable conformational switch in the c-MYC transactivation domain” (Nature Communications, 2024).

Legend:
[1] = biological target: T1, TRRAP_(2038-2087) synthetic peptide (N-terminal acetyl (Ac-), C-terminal amide (-NH2)); assay: native MS; equimolar mixture, 15.5 uM coreMYC and 15 uM TRRAP_(2038-2087) peptide in 100 mM ammonium acetate, no EGCG, sample cone 10 V; conditions: both partners purified
T1 construct: transformation/transcription domain-associated protein (TRRAP), residues 2038-2087; also called TRRAP peptide; source: synthetic peptide (GenScript)
T1 peptide: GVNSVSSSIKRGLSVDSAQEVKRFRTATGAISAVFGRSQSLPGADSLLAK

[2] = biological target: T2, Recombinant human TATA binding protein (ab81897, Abcam) (human); assay: native MS; mixture of coreMYC (6) and full-length TBP (10; concentrations printed as mM), ammonium acetate (TBP exchanged into 1 M), no EGCG, sample cone 50 V; conditions: both partners purified
T2 construct: also called TBP; full-length, human TBP; source: bought: Abcam (ab81897)
T2 chain: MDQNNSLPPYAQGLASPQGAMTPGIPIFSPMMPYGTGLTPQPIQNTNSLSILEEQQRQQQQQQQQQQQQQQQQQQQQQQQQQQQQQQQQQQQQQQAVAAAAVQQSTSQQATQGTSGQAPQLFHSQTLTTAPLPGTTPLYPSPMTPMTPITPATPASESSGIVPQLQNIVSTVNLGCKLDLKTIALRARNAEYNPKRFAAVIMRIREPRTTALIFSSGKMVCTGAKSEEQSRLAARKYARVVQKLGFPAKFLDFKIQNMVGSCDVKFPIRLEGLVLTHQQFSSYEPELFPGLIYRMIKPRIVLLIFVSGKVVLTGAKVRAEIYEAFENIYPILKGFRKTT

B1: MGHis6-coreMYC (c-MYC residues 101-150) (peptide)
chain: MVTELLGGDMVNQSFICDPDDETFIKNIIIQDCMWSGFSAAAKLVSEKLA
notes: c-MYC, residues 101-150 (coreMYC); Cloned into pET-26b(+); also called MYC_(101-150); COnformational REgulator of c-MYC; source: E. coli BL21 (DE3), purified in-house (solubilised from the pellet in urea, His SpinTrap column); not shown: MGHis6, N-terminal, kept
stoichiometry N [1]: 1 | stoichiometry N [2]: 1
